Experimental data from publication PMC6562446 (2019).

Experiments:
Assay in all cases: SPR
Recombinant B7-H4 [1] = biological target: T1, Recombinant B7-H4 (UniProt Q7Z7D3 25-259, N-glycans, including high mannose glycans through which PFL binds)
T1 chain: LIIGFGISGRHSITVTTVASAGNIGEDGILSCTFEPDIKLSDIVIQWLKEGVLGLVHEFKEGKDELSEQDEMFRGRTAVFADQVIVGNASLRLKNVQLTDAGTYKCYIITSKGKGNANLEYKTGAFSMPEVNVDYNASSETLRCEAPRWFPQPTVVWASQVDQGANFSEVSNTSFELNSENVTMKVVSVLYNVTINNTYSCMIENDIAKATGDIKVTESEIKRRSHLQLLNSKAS

[2] = biological target: T2, Recombinant integrin αvβ3 (UniProt P06756 31-1048; P05106 27-718)
T2 chain 1: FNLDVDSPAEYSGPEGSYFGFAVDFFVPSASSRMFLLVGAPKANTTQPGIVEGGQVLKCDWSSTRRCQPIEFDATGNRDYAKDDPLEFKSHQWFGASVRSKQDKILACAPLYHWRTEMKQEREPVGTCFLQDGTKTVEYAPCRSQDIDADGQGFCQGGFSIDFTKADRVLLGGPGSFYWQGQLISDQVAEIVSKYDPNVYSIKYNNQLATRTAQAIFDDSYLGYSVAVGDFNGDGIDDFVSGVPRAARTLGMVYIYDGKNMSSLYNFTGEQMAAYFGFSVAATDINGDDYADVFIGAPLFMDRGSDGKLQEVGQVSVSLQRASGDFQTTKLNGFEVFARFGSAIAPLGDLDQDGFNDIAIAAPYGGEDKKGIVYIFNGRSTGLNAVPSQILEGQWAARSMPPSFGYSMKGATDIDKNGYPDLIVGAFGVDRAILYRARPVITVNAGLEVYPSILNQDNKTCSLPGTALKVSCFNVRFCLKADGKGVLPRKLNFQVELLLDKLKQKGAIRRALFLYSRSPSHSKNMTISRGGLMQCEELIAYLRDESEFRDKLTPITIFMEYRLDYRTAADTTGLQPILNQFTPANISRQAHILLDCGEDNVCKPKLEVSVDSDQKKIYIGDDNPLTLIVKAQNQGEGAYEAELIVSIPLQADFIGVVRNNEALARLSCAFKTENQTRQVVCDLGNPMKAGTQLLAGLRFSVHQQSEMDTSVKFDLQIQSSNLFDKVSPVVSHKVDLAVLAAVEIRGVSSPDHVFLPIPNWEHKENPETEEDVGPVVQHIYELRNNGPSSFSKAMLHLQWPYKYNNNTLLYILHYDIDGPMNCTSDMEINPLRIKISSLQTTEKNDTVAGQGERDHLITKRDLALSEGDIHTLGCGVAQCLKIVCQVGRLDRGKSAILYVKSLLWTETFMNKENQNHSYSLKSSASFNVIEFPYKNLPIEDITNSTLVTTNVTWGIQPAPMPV
T2 chain 2: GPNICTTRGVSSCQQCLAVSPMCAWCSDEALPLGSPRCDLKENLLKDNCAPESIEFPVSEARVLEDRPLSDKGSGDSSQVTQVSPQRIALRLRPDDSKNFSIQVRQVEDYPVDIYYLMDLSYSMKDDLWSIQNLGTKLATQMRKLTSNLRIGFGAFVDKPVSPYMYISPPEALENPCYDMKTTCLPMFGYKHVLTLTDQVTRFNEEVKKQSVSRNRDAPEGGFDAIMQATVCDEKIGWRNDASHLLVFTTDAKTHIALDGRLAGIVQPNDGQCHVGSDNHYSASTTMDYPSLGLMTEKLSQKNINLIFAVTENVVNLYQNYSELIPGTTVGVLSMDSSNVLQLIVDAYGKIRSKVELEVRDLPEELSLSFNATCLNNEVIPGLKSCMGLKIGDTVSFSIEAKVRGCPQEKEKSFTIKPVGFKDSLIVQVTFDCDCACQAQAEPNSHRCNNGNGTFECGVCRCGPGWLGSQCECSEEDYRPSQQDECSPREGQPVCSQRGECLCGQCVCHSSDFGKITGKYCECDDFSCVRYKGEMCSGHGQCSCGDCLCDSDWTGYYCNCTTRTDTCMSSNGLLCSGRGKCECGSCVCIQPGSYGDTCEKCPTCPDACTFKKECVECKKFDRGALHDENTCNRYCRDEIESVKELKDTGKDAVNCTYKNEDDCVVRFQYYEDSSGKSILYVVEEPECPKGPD

Recombinant B7-H4 [3] = biological target: T1, Recombinant B7-H4
[4] = biological target: T2, Recombinant integrin αvβ3

B1: Pseudomonas fluorescens lectin (PFL) (natural protein)
chain: MSKYAVANQWGGSSAPWHPGGTWVLGARDNQNVVAIEIKSGDGGKSFTGTMTYAGEGPIGFKAQRTGQNQYNVENQWGGNDAPWHPGGKWVIGGRDNQNVIALSVTSSDGGKNLSGTNTYANEGPIGFRGQIE
- Kd (Recombinant B7-H4 [1]): 5.35 nM
- Kd [2]: 1.65 nM
- koff (Recombinant B7-H4 [3]): 0.00043 s⁻¹
- koff [4]: 8.69e-06 s⁻¹
